The target of this assay is human CD47 (19 to 135) tagged with human immunoglobulin G1 Fc (N297A) (human, UniProt Q08722 19-135, biotin (NHS-biotin, 10-fold molar excess) in SPR). As to the kind of experiment: SPR. For orientation: SPR reads the build-up and loss of mass on a sensor chip optically.
human CD47 (19 to 135) tagged with human immunoglobulin G1 Fc (N297A), sequence (Q08722 19-135, stated change not applied): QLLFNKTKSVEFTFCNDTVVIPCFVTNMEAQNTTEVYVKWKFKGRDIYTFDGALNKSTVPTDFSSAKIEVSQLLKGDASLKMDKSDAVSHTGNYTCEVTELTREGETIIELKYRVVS

B1: Aedes aegypti Nest1 (neutrophil-stimulating factor 1), recombinant, amino acids 22 to 316 (natural protein)
chain: KPTQGSCTLTDEDISDIKSAVQKASKAAVNDIVLDPTLIDKCPMLEKITASLKSVATEIVQMRDSAISTDQVDQLKQNFEDQVNQIVKSRDIFEKQSGTQATKEHGEMLERMTALQVKVTELEQQIAKQTASMYEDMAELIFQRLQMNSTESVRSYTKHMMEEKLEELMNKLETNYRIYLGALRFLNHMNDQELIGKVFDGILKRLGDMKADSDDVKENGRNLLVNLLCWTVNNDFLGKKYKERQVDLYRMALKFYPKTYEKAANEADVRSRQFCEENFPANLITWFAVSWNDRG
modifications: biotin (BirA500 kit) in the yeast library screen
With B1, the off-rate (koff) is 0.0121 s⁻¹.

For orientation: koff means a measure of how fast the partners let go of each other. A lower koff goes with slow dissociation.

Values taken from publication PMC11924945 (2024).
